Test system: Escherichia coli TOP10
Assay: shrunken log2 fold change of peptide-encoding DNA abundance (4.5 h post-induction vs induction); higher = less antimicrobial activity (less host growth inhibition)
Conditions: time post-induction: 4.5 h; library: site-saturation at positions 5, 18, 19, 20
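Also: peptides expressed intracellularly from a pBAD plasmid library in pooled LB shake-flask culture, induced with 0.3% L-arabinose, DNA abundance read by NGS, three biological replicates, DESeq2 with apeglm shrinkage.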

Sequence	shrunken log2 fold change
RRIRERPPRLPRPRPRPCEEPRP	-0.125
RRIRLRPPRLPRPRPRPHGRPRP	0.114
RRIRQRPPRLPRPRPRPYQLPRP	-0.00448
RRIRWRPPRLPRPRPRPSGLPRP	0.155
RRIRVRPPRLPRPRPRPAWMPRP	0.0871
RRIRGRPPRLPRPRPRPMTLPRP	0.509
RRIRVRPPRLPRPRPRPLEFPRP	-0.114
RRIRSRPPRLPRPRPRPAKSPRP	0.0744
RRIRSRPPRLPRPRPRPHAPPRP	0.27
RRIRYRPPRLPRPRPRPHRNPRP	-0.745
RRIRMRPPRLPRPRPRPLTIPRP	0.19
RRIRLRPPRLPRPRPRPCTIPRP	-0.298
RRIRTRPPRLPRPRPRPKLTPRP	0.0272
RRIRNRPPRLPRPRPRPIAKPRP	-0.000903
RRIRCRPPRLPRPRPRPLHTPRP	-0.0899
RRIRVRPPRLPRPRPRPPHGPRP	-0.317
RRIRWRPPRLPRPRPRPNSVPRP	-0.325
RRIRNRPPRLPRPRPRPPFLPRP	-0.0418
RRIRSRPPRLPRPRPRPVMMPRP	-0.0812
RRIRQRPPRLPRPRPRPLTDPRP	0.132
RRIRCRPPRLPRPRPRPYHVPRP	-0.0591
RRIRHRPPRLPRPRPRPNMHPRP	1.05
RRIRLRPPRLPRPRPRPYYDPRP	-0.379
RRIRQRPPRLPRPRPRPLLRPRP	-0.0709
RRIRWRPPRLPRPRPRPYKCPRP	0.0561

Sequence	shrunken log2 fold change
RRIRRRPPRLPRPRPRPHGMPRP	0.0957
RRIRNRPPRLPRPRPRPLWAPRP	-0.0559
RRIRYRPPRLPRPRPRPWNTPRP	-0.384
RRIRERPPRLPRPRPRPCYHPRP	-0.744
RRIRGRPPRLPRPRPRPCQMPRP	0.215
RRIRIRPPRLPRPRPRPILHPRP	-0.469
RRIRLRPPRLPRPRPRPETYPRP	-0.215
RRIRKRPPRLPRPRPRPNPCPRP	0.117
RRIRCRPPRLPRPRPRPEPCPRP	-0.0257
RRIRHRPPRLPRPRPRPGHAPRP	-0.0876
RRIRDRPPRLPRPRPRPAGRPRP	0.632
RRIRQRPPRLPRPRPRPNEVPRP	-0.00511
RRIRKRPPRLPRPRPRPDFNPRP	0.0068
RRIRCRPPRLPRPRPRPAFDPRP	0.253
RRIRMRPPRLPRPRPRPTFAPRP	0.573
RRIRNRPPRLPRPRPRPLENPRP	-0.0075
RRIRARPPRLPRPRPRPQHPPRP	0.29
RRIRERPPRLPRPRPRPCPDPRP	-0.0864
RRIRTRPPRLPRPRPRPEMHPRP	-0.149
RRIRLRPPRLPRPRPRPPRSPRP	0.422
RRIRNRPPRLPRPRPRPRNAPRP	0.0122
RRIRDRPPRLPRPRPRPMYEPRP	0.183
RRIRRRPPRLPRPRPRPHQRPRP	0.14
RRIRFRPPRLPRPRPRPAFRPRP	0.132
RRIRKRPPRLPRPRPRPQDEPRP	-0.0149

Sequence	shrunken log2 fold change
RRIRTRPPRLPRPRPRPYSFPRP	-0.552
RRIRHRPPRLPRPRPRPKDPPRP	0.0476
RRIRARPPRLPRPRPRPIRSPRP	-0.129
RRIRKRPPRLPRPRPRPHTWPRP	0.0484
RRIRVRPPRLPRPRPRPLQWPRP	0.209
RRIRYRPPRLPRPRPRPAMAPRP	0.0187
RRIRERPPRLPRPRPRPTCKPRP	-0.0222
RRIRARPPRLPRPRPRPHNCPRP	-0.162
RRIRNRPPRLPRPRPRPHLMPRP	-0.584
RRIRERPPRLPRPRPRPDLSPRP	-0.349
RRIRTRPPRLPRPRPRPFETPRP	-0.117
RRIRRRPPRLPRPRPRPNCHPRP	-0.0432
RRIRVRPPRLPRPRPRPPKRPRP	-0.193
RRIRSRPPRLPRPRPRPCVCPRP	0.0568
RRIRTRPPRLPRPRPRPKWNPRP	0.0454
RRIRHRPPRLPRPRPRPLPTPRP	0.245
RRIRCRPPRLPRPRPRPKDFPRP	-0.0611
RRIRHRPPRLPRPRPRPCCQPRP	-0.243
RRIRTRPPRLPRPRPRPRNLPRP	-0.218
RRIRSRPPRLPRPRPRPCCVPRP	0.0729
RRIRGRPPRLPRPRPRPWSGPRP	0.0316
RRIRNRPPRLPRPRPRPCGAPRP	0.144
RRIRFRPPRLPRPRPRPVYPPRP	-0.477
RRIRTRPPRLPRPRPRPQEYPRP	-0.0331
RRIRHRPPRLPRPRPRPKDLPRP	-0.0584

Sequence	shrunken log2 fold change
RRIRPRPPRLPRPRPRPFSNPRP	-0.218
RRIRNRPPRLPRPRPRPFFTPRP	-0.147
RRIRARPPRLPRPRPRPHHAPRP	0.0775
RRIRLRPPRLPRPRPRPYLHPRP	-0.447
RRIRNRPPRLPRPRPRPMFWPRP	0.0282
RRIRQRPPRLPRPRPRPYQPPRP	-0.0272
RRIRNRPPRLPRPRPRPVLMPRP	-0.14
RRIRYRPPRLPRPRPRPDIYPRP	0.0393
RRIRTRPPRLPRPRPRPETKPRP	0.00321
RRIRKRPPRLPRPRPRPHRIPRP	0.00291
RRIRSRPPRLPRPRPRPFESPRP	-0.258
RRIRWRPPRLPRPRPRPLEAPRP	0.668
RRIRIRPPRLPRPRPRPTWIPRP	-0.415
RRIRKRPPRLPRPRPRPHQNPRP	0.0256
RRIRWRPPRLPRPRPRPNYDPRP	-0.24
RRIRVRPPRLPRPRPRPDRHPRP	-0.0428
RRIRERPPRLPRPRPRPRQNPRP	0.177
RRIRARPPRLPRPRPRPQISPRP	-0.051
RRIRTRPPRLPRPRPRPSYYPRP	-0.786
RRIRSRPPRLPRPRPRPRYQPRP	-0.145
RRIRRRPPRLPRPRPRPKYLPRP	-0.042
RRIRIRPPRLPRPRPRPKGQPRP	0.143
RRIRCRPPRLPRPRPRPIARPRP	0.19
RRIRGRPPRLPRPRPRPTAGPRP	1.15
RRIRVRPPRLPRPRPRPRPMPRP	0.445

Sequence	shrunken log2 fold change
RRIRWRPPRLPRPRPRPNVRPRP	0.057
RRIRYRPPRLPRPRPRPCGLPRP	-0.107
RRIRLRPPRLPRPRPRPFEEPRP	0.127
RRIRQRPPRLPRPRPRPAMYPRP	-0.244
RRIRVRPPRLPRPRPRPYGHPRP	-0.0167
RRIRLRPPRLPRPRPRPWFDPRP	-0.365
RRIRHRPPRLPRPRPRPFCRPRP	-0.108
RRIRGRPPRLPRPRPRPFVAPRP	0.751
RRIRHRPPRLPRPRPRPCVAPRP	0.0478
RRIRFRPPRLPRPRPRPCIVPRP	-0.637
RRIRERPPRLPRPRPRPACPPRP	-0.0623
RRIRVRPPRLPRPRPRPFKDPRP	-0.166
RRIRVRPPRLPRPRPRPCPTPRP	-0.17
RRIRIRPPRLPRPRPRPLHDPRP	0.181
RRIRGRPPRLPRPRPRPKLGPRP	1.12
RRIRPRPPRLPRPRPRPLPDPRP	0.179
RRIRGRPPRLPRPRPRPYYGPRP	-0.289
RRIRARPPRLPRPRPRPMHKPRP	0.221
RRIRHRPPRLPRPRPRPTTHPRP	0.0467
RRIRGRPPRLPRPRPRPPGCPRP	0.895
RRIRWRPPRLPRPRPRPKDCPRP	-0.0724
RRIRYRPPRLPRPRPRPEDGPRP	-0.141
RRIRFRPPRLPRPRPRPRWKPRP	0.217
RRIRTRPPRLPRPRPRPFMPPRP	-0.618
RRIRYRPPRLPRPRPRPKLPPRP	0.108

Sequence	shrunken log2 fold change
RRIRTRPPRLPRPRPRPIFEPRP	-0.113
RRIRDRPPRLPRPRPRPKTVPRP	0.271
RRIRMRPPRLPRPRPRPRTLPRP	0.28
RRIRCRPPRLPRPRPRPPTQPRP	0.515
RRIRQRPPRLPRPRPRPTWLPRP	0.295
RRIRRRPPRLPRPRPRPNPRPRP	1.11
RRIRPRPPRLPRPRPRPVSYPRP	-0.245
RRIRARPPRLPRPRPRPVKFPRP	-0.0699
RRIRQRPPRLPRPRPRPRFKPRP	-0.128
RRIRPRPPRLPRPRPRPICQPRP	-0.0543
RRIRKRPPRLPRPRPRPIQLPRP	-0.0418
RRIRMRPPRLPRPRPRPNIKPRP	-0.266
RRIRCRPPRLPRPRPRPIKMPRP	-0.185
RRIRSRPPRLPRPRPRPFGPPRP	0.132
RRIRSRPPRLPRPRPRPLPNPRP	-0.215
RRIRMRPPRLPRPRPRPMYPPRP	-0.00194
RRIRNRPPRLPRPRPRPHGYPRP	-0.066
RRIRVRPPRLPRPRPRPVKEPRP	0.629
RRIRWRPPRLPRPRPRPAECPRP	-0.0444
RRIRSRPPRLPRPRPRPHQTPRP	-0.066
RRIRNRPPRLPRPRPRPATGPRP	-0.04
RRIRQRPPRLPRPRPRPEFMPRP	-0.0743
RRIRNRPPRLPRPRPRPPQPPRP	0.621
RRIRERPPRLPRPRPRPNAQPRP	0.138
RRIRYRPPRLPRPRPRPADQPRP	-0.0819

From the supplement of paper PMC9112550, “Optimization of the antimicrobial peptide Bac7 by deep mutational scanning” (BMC Biology, 2022)
